Measured values from the supplement of paper PMC10567573.

B1: CAMK2B (parent)
chain: YQQIKAGAYDFPSPEWDTVTPEAK
B2: SLC2A12 (parent)
chain: LTLVFFVQITGQPNILFYASTVLK

Variants of: B1
Test: protein stability index of a GFP-peptide fusion (GPS, HEK-293T) (PSI 1-6); higher = more stable
Details: c terminus: a fixed tail appended
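Also: lentivirally expressed fusions sorted by FACS into six bins by GFP to DsRed ratio, PSI derived from sequencing read proportions per bin multiplied by bin number.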

| Variant | protein stability index |
| --- | --- |
| Q2D | 4.78 |
| Q2H | 2.88 |
| Q2K | 3.8 |
| Q2A | 3.12 |
| Q2M | 3.95 |
| Q2V | 1.8 |
| Q2E | 4.64 |
| Q2C | 2.87 |
| Q2G | 3.7 |
| Q2F | 3.46 |
| Q2N | 4.51 |
| Q2R | 4.06 |
| Q2I | 2.28 |
| Q2W | 3.06 |
| Q2S | 4.34 |
| Q2T | 3.67 |
| Q2P | 3.67 |
| Q2Y | 3.6 |
| Q2L | 3.35 |
| Q3R | 2.22 |
| Q3A | 2.11 |
| Q3M | 2.88 |
| Q3G | 2.68 |
| Q3L | 3.38 |
| Q3N | 3.62 |
| Q3D | 3.94 |

| Variant | protein stability index |
| --- | --- |
| Q3P | 3.03 |
| Q3I | 3.15 |
| Q3F | 2.55 |
| Q3H | 3.28 |
| Q3E | 4.59 |
| Q3K | 2.75 |
| Q3C | 2.17 |
| Y1C | 4.45 |
| Y1G | 5.11 |
| Y1V | 4.69 |
| Y1W | 4.15 |
| Y1R | 4.83 |
| Y1N | 5.21 |
| Y1D | 5.38 |
| Y1F | 3.33 |
| Y1L | 4.75 |
| Y1M | 5.04 |
| Y1A | 4.94 |
| Y1E | 5.13 |
| Y1P | 4.94 |
| Y1Q | 4.92 |
| Y1T | 4.88 |
| Y1K | 4.88 |
| Y1I | 3.89 |
| Y1S | 4.94 |
| Y1H | 4.58 |

Variants of: B2
Test: as above
Details: c terminus: a fixed tail appended

| Variant | protein stability index |
| --- | --- |
| L16R | 3.61 |
| L16D | 2.58 |
| L16M | 3.19 |
| L16A | 4.05 |
| L16C | 2.98 |
| L16G | 2.02 |
| L16H | 1.6 |
| L16T | 3.51 |
| L16P | 4.12 |
| T21E | 2.46 |
| T21S | 3.13 |
| T21W | 3.97 |
| T21D | 3.9 |
| T21I | 3.71 |
| T21L | 2.38 |
| T21N | 3.31 |
| T21Q | 2.97 |
| T21C | 3.33 |
| T21P | 3.23 |
| T21F | 3.22 |
| T21M | 3.09 |
| K24H | 2.21 |
| K24L | 1.12 |

| Variant | protein stability index |
| --- | --- |
| K24T | 2.2 |
| K24E | 3.5 |
| K24F | 3.17 |
| K24W | 2.76 |
| K24V | 3.5 |
| K24Y | 4.23 |
| K24P | 1.8 |
| K24Q | 4.06 |
| K24S | 3.98 |
| K24A | 2.9 |
| K24I | 2.92 |
| K24N | 4.33 |
| K24D | 2.73 |
| I15S | 4.88 |
| I15Q | 2.46 |
| I15L | 4.71 |
| I15E | 2.91 |
| I15K | 2.67 |
| I15W | 2.63 |
| I15F | 3.04 |
| I15Y | 3.83 |
| I15C | 2.48 |
| I15A | 2.99 |

| Variant | protein stability index |
| --- | --- |
| L23H | 2.38 |
| L23W | 1.83 |
| L23M | 3.81 |
| L23T | 3.09 |
| L23N | 2.74 |
| L23Y | 3.92 |
| L23E | 2.83 |
| L23V | 2.58 |
| L23R | 3.18 |
| L23Q | 3.05 |
| L23S | 3.26 |
| S20N | 2.84 |
| S20A | 2.52 |
| S20G | 3.23 |
| S20W | 4.76 |
| S20Y | 3.22 |
| S20F | 4.03 |
| S20I | 4.31 |
| S20C | 2.27 |
| S20Q | 2.48 |
| S20E | 3.34 |
| S20M | 2.78 |
| S20T | 4.03 |

| Variant | protein stability index |
| --- | --- |
| S20P | 2.92 |
| S20K | 3.97 |
| A19V | 2.66 |
| A19L | 3.37 |
| A19T | 2.42 |
| A19R | 2.55 |
| A19K | 2.5 |
| A19M | 2.4 |
| Y18F | 3.63 |
| Y18M | 2.05 |
| Y18I | 2.47 |
| Y18D | 2.93 |
| Y18K | 2.6 |
| Y18S | 3.38 |
| Y18E | 2.04 |
| Y18L | 3.04 |
| Y18P | 4.25 |
| Y18T | 2.31 |
| Y18A | 2.49 |
| Y18N | 1.59 |
| V22I | 3.81 |
| V22C | 2.2 |
| V22D | 3.37 |

| Variant | protein stability index |
| --- | --- |
| V22R | 3.38 |
| V22S | 1.93 |
| V22N | 2.78 |
| V22A | 4.16 |
| V22P | 3.9 |
| V22L | 2.28 |
| V22Q | 4.34 |
| V22Y | 3.57 |
| V22F | 2.78 |
| F17S | 2.69 |
| F17A | 1.86 |
| F17K | 3.38 |
| F17N | 2.66 |
| F17T | 3.28 |
| F17W | 3 |
| F17M | 2.52 |
| F17H | 3.19 |
| F17Y | 2.63 |
| F17Q | 3.16 |
| N14R | 3.96 |
| N14Y | 1.5 |
| N14S | 2.14 |
| N14T | 3.06 |
